Test results published in patent US20260250425A1 (UNIVERSITY OF CHICAGO, published 2026).
Where two headings read alike, the source gives them in different places.

Columns and labels:
[1] = molecular target: T1, mouse C1q (mouse, UniProt P98086 23-245; P14106 26-253; Q02105 30-246); experiment: ELISA, plate coated with BALB/c mouse serum (mouse C1q)
T1 construct: Plates were coated with BALB/c mouse serum as the source of mouse C1q; also called mc1q

[2] = molecular target: T2, human C1q (human, UniProt P02745 23-245; P02746 28-253; P02747 29-245); experiment: ELISA, human C1q-coated plate
T2 construct: Purified human C1q (CompTech); also called hc1q; hC1q
T2 sequence (P02745 23-245 limits assumed, chain 1 of 3): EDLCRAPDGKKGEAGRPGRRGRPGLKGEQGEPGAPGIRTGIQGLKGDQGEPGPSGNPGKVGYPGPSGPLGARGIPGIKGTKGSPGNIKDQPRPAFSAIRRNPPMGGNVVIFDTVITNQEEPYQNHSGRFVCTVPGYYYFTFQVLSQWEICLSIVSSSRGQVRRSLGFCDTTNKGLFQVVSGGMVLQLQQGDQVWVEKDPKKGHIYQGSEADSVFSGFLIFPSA
T2 sequence (P02746 28-253 limits assumed, chain 2 of 3): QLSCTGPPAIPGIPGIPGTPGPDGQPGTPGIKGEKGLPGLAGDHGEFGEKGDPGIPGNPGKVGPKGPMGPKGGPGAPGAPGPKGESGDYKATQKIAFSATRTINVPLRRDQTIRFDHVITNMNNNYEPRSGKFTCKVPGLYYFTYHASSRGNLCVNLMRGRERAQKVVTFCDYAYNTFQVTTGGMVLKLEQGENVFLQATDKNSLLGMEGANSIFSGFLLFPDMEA
T2 sequence (P02747 29-245 limits assumed, chain 3 of 3): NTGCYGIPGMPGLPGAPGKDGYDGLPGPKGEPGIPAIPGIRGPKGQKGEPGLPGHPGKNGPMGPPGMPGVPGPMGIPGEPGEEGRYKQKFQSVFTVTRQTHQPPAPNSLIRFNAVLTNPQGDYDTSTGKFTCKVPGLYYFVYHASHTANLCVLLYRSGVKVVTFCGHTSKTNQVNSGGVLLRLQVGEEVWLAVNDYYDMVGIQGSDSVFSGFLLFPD

[3] = molecular target: T2, human C1q; experiment: ELISA, human C1q-coated plate; remark: listed apart in the source
[4] = molecular target: T1, mouse C1q; experiment: ELISA, plate coated with BALB/c mouse serum (mouse C1q); remark: listed apart in the source
[5] = molecular target: T3, mouse FcγRIII (mouse, UniProt P08508 31-215); experiment: ELISA, His-tagged FcγR captured by anti-His antibody
T3 construct: Recombinant His-tagged protein
T3 sequence (looked up): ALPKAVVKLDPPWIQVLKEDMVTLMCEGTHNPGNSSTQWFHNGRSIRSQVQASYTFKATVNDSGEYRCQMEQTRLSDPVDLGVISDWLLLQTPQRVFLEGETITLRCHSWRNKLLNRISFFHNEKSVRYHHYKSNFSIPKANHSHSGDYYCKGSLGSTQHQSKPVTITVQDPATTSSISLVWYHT

[6] = molecular target: T4, human FcγRIA (human, UniProt P12314 16-288, limits assumed); experiment: as above
T4 construct: Recombinant His-tagged protein
T4 sequence (P12314 16-288 limits assumed): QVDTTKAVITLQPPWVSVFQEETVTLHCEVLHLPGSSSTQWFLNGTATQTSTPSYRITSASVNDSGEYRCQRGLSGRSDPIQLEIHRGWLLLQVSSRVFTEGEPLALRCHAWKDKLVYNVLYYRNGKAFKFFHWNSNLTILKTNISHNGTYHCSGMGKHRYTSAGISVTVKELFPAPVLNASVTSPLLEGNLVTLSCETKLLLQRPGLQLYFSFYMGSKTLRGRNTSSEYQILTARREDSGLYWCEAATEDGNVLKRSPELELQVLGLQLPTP

[7] = molecular target: T5, human FcγRIIIA (F158) (human, UniProt P08637 17-208); experiment: as above
T5 construct: Recombinant His-tagged protein
T5 sequence (P08637 17-208 limits assumed): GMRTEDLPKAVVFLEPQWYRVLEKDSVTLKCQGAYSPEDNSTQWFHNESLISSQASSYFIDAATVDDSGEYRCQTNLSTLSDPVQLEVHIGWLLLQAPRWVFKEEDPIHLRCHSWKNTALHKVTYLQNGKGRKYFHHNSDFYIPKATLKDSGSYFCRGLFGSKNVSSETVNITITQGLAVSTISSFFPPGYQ

[8] = molecular target: T6, human FcγRIIA (H131) (human, UniProt P12318 34-218, limits assumed); experiment: as above
T6 construct: Recombinant His-tagged protein
T6 sequence (looked up): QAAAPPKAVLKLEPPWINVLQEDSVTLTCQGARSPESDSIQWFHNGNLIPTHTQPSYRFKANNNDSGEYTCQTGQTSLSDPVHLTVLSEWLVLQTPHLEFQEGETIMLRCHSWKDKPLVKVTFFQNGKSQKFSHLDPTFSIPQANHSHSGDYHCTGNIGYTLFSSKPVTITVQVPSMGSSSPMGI

[9] = molecular target: T7, human FcγRIIB (human, UniProt P31994 43-217, limits assumed); experiment: as above
T7 construct: Recombinant His-tagged protein; also called FcγRIIB (human)
T7 sequence (looked up): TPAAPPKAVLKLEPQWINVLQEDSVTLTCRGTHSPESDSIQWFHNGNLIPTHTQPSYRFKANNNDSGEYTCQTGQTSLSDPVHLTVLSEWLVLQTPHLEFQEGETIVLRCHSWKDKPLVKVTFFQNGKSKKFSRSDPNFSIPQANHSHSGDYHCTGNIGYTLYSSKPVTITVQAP

[10] = molecular target: T8, human FcγRIIIA (V158) (human, UniProt P08637 17-208); experiment: as above
T8 construct: Recombinant His-tagged protein
T8 sequence (P08637 17-208 F176V limits assumed): as the sequence (P08637 17-208 limits assumed) above, with F160V counted along it

[11] = molecular target: T9, human FcγRIIA (R131) (human, UniProt P12318 34-218, limits assumed); experiment: as above
T9 construct: Recombinant His-tagged protein
T9 sequence (looked up): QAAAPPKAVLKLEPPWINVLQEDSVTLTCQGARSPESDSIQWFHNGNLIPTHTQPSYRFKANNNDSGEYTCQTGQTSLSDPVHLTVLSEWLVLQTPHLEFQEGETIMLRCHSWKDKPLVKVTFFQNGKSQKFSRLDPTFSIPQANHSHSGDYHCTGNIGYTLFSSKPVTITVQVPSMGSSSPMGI

[12] = molecular target: T10, mouse FcγRIV (mouse, UniProt A0A0B4J1G0 21-203); experiment: as above
T10 construct: Recombinant His-tagged protein
T10 sequence: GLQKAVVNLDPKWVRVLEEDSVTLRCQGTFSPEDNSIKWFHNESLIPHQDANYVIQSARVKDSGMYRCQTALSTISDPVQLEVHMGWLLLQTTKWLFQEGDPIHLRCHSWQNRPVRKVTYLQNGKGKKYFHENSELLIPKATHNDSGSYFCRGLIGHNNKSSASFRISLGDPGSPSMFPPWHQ

[13] = molecular target: T11, mouse FcγRI (mouse, UniProt P26151 25-297); experiment: as above
T11 construct: Recombinant His-tagged protein
T11 sequence (looked up): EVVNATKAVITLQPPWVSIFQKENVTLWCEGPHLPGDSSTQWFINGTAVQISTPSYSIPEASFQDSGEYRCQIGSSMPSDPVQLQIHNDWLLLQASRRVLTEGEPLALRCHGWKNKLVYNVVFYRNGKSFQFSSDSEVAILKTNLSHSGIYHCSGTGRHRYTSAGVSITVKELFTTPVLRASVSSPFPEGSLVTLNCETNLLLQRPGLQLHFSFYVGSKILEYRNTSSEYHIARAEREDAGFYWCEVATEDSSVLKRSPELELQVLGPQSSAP

[14] = molecular target: T12, mouse FcγRIIB (mouse, UniProt P08101 30-210, limits assumed); experiment: as above
T12 construct: Recombinant His-tagged protein
T12 sequence (looked up): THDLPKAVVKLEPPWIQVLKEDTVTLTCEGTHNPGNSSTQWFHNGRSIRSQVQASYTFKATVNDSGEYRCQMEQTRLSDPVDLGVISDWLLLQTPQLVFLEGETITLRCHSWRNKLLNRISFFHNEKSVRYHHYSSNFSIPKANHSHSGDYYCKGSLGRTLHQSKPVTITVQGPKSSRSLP

T1 sequence (P98086 23-245 limits assumed, chain 1 of 3): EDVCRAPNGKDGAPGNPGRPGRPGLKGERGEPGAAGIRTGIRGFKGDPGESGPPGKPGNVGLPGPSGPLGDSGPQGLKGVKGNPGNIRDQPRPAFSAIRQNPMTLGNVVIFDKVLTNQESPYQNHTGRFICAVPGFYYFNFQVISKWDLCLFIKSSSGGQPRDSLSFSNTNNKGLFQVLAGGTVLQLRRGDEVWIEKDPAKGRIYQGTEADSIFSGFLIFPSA
T1 sequence (P14106 26-253 limits assumed, chain 2 of 3): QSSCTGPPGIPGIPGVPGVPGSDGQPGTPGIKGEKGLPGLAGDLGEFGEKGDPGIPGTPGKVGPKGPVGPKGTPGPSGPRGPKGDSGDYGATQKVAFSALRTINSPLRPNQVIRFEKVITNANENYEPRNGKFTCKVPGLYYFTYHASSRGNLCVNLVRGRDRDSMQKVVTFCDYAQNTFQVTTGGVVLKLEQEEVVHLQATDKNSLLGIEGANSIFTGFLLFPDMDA
T1 sequence (Q02105 30-246 limits assumed, chain 3 of 3): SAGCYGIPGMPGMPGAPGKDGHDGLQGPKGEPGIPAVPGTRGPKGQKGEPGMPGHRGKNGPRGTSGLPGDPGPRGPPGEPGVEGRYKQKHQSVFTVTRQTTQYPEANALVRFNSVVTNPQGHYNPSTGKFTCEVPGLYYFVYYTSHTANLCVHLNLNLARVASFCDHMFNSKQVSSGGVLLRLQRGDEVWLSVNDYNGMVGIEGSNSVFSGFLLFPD

B1: 3F6-hIgG1CHO (antibody)
heavy: not shown
light: DIVLTQSPDSLAVSLGERATINCRASESVEYSGASLMQWYQHKPGQPPKLLIYAASNRESGVPDRFSGSGSGTDFTLTISPVQAEDVAMYFCQQSRKVPSTFGGGTKLEIKRTVAAPSVFIFPPSDEQLKSGTASVVCLLNNFYPREAKVQWKVDNALQSGNSQESVTEQDSKDSTYSLSSTLTLSKADYEKHKVYACEVTHQGLSSPVTKSFNRGEC
modifications: Asn297 N-glycans as made by CHO-DG44 cells (mainly G0F, less G1F and G2F)
notes: Humanized 3F6 human IgG1 produced in CHO-DG44 cells; also called 3F6-hIgG1CHO WT; CHO-produced antibody
- Ka [1]: 8.87e+06 M⁻¹
- Ka [2]: 4.91e+06 M⁻¹
- Ka [3]: 4.91e+06 M⁻¹
- Ka [4]: 8.87e+06 M⁻¹
- Ka [5]: 1.49e+06 M⁻¹
- Ka [6]: 7.66e+08 M⁻¹
- Ka [7]: 3.09e+06 M⁻¹
- Ka [8]: 1.75e+06 M⁻¹
- Ka [9]: 1.65e+06 M⁻¹
- Ka [10]: 2.75e+07 M⁻¹
- Ka [11]: 2.36e+06 M⁻¹
- Ka [12]: 1.15e+08 M⁻¹
- Ka [13]: 1.77e+08 M⁻¹
- Ka [14]: 1.53e+06 M⁻¹
